For test [1], the target named is UNC5H-2 (rat homologue of UNC-5) (rat) (UniProt O08722). As to the kind of experiment: equilibrium binding, curves fitted to the Hill equation.
Test [2] concerns the target UNC5H-1 (rat homologue of UNC-5) (rat) (UniProt O08721). The test is described as above.
Chain of UniProt O08721 (O08721 26-898 limits assumed, form in doubt): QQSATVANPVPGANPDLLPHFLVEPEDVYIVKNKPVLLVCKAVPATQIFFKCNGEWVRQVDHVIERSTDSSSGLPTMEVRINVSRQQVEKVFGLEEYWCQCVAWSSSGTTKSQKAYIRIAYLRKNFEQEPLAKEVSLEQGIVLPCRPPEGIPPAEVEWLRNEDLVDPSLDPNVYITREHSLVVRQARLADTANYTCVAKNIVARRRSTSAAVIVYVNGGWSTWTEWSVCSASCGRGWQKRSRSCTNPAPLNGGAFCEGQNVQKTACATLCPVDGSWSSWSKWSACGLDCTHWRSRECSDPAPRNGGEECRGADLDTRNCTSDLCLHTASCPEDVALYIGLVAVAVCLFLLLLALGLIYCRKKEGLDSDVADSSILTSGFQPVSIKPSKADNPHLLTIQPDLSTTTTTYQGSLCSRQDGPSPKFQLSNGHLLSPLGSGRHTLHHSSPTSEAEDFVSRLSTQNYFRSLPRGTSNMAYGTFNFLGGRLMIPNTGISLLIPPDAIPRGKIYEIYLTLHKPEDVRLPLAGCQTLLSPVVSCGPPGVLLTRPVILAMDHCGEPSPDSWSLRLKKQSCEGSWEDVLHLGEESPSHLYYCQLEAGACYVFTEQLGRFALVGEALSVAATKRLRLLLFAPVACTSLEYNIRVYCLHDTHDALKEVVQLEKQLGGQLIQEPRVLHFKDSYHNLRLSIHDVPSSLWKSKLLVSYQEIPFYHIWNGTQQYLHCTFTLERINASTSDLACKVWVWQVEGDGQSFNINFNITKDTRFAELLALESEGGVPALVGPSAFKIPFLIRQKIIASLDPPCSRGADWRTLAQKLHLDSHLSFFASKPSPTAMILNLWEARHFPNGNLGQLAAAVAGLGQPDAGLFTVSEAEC

Usually Kd stands for the concentration at which binding is half-saturated. Low values mean tighter binding, high ones weaker binding. netrin(VIoV)-Fc (Fc fusion): the Kd in test [1] was determined as 3.4 nM; in test [2], 19 nM.

These data come from US7041806.
